According to US20240352145A1, “EFFICACY OF ANTI-TROP-2-SN-38 ANTIBODY DRUG CONJUGATES FOR THERAPY OF TUMORS RELAPSED/REFRACTORY TO CHECKPOINT INHIBITORS” (Immunomedics, Inc., priority 2016, published 2024):
Where two headings read alike, the source gives them in different places.

Experiments:
[1] = test system: diverse metastatic cancers
Experimental: To optimize cumulative treatment with minimal delays, phase II is focusing on 8 and 10 mg/kg (n=30 and 14, respectively).
Two ELISA methods were used to measure the clearance of the IgG (capture with anti-hRS7 idiotype antibody) and the intact conjugate (capture with anti-SN-38 IgG/probe with anti-hRS7 idiotype antibody). SN-38 was measured by HPLC.

[2] = test system: human pancreatic adenocarcinoma xenograft model (BxPC-3); test: Clinically-relevant dosing schemes, BxPC-3 xenograft; assay type: in vivo, mouse; settings: for TTP: untreated 5.0±2.3
Source text: In Vivo Therapeutic Studies—NCr female athymic nude (nu/nu) mice, 4-8 weeks old, were purchased from Taconic Farms (Germantown, NY). NCI-N87 gastric tumor xenografts were established by harvesting cells from tissue culture and making a final cell suspension 1:1 in matrigel (BD Bioscience; San Jose, CA), with each mouse receiving a total of 1×10^7 cells s.c. in the right flank. For BxPC-3. xenografts of 1 g were harvested, and a tumor suspension made in HBSS to a concentration of 40% tumor w/v. This suspension was mixed 1:1 with matrigel for a final tumor suspension of 20% w/v. […] For IHC, tumors were allowed to grow to approximately 0.5 cm^3 before the mice were euthanized and the tumors removed, formalin-fixed and paraffin-embedded. For therapy studies, mice were randomized into treatment groups and therapy begun when tumor volumes were approximately 0.25 cm^3.
Mice were euthanized and deemed to have succumbed to disease once tumors grew to greater than 1.0 cm^3 in size. […] Time to progression (TTP) was determined as time post-therapy initiation when the tumor grew more than 20% in size from its nadir.
A human dose of 8 mg/kg translates to a murine dose of 98.4 mg/kg, or approximately 2 mg to a 20 g mouse.

[3] = mouse, in vivo
Experimental: One group was injected intravenously with 20 μCi (250-μg protein) of ^111In-sacituzumab govitecan, whereas another group received 20 μCi (250-μg protein) of ^111In-hRS7 IgG. At various timepoints mice (5 per timepoint) were anesthetized, bled via intracardiac puncture, and then euthanized. Tumors and various tissues were removed, weighed, and counted by γ scintillation to determine the percentage injected dose per gram tissue (% ID/g). […] Pharmacokinetic analysis on blood clearance was performed using WinNonLin software (Parsight Corp.).

gastric cancer = test: Case, stage IV metastatic gastric cancer
[4] = test system: BXPC3 model of human pancreatic cancer; settings: mouse, in vivo, sc
BxPC-3 = test: In vitro cytotoxicity, BxPC-3
Source text: Cell lines, antibodies, and chemotherapeutics—All human cancer cell lines used in this study were purchased from the American Type Culture Collection.

[5] = esophageal cancer, 4 assessable patients

IMMU-132
dose-limiting toxicity ([1]; 8, then 12 and 18 mg/kg, days 1 and 8 of 21-day cycles): dose-limiting neutropenia
median TTP in PDC patients ([1]; 8 wks for preceding last therapy): 11.9 wks
stable disease, PDC ([1]; 13 CT-assessable PDC patients): 62%
patients with long-term stable disease ([1]; 24 assessable patients, Phase I study): Over 80%
partial response (PR) ([1]; 48 assessable patients (excluding PDC), RECIST/CT): 15%
maximum reduction ([1]; CRC case, after 10 months of treatment): 65%
CEA after treatment ([1]; CRC case, from 781 ng/mL): 26.5 ng/mL
PD, number of patients ([1]; CRC, 18 assessable patients): 6
PR, number of patients ([1]; CRC, 18 assessable patients): 1
total response [PR+SD] ([1]; CRC, 18 assessable patients): 67%
PD, number of patients ([1]; NSCLC, 5 assessable patients): 1
PR, number of patients ([1]; NSCLC, 5 assessable patients): 1
total response [PR+SD] ([1]; NSCLC, 5 assessable patients): 80%
PD, number of patients ([1]; SCLC, 4 assessable patients): 2
PR, number of patients ([1]; SCLC, 4 assessable patients): 2
total response [PR+SD] ([1]; SCLC, 4 assessable patients): 50%
PD, number of patients ([1]; TNBC, 8 assessable patients): 2
PR, number of patients ([1]; TNBC, 8 assessable patients): 2
total response [PR+SD] ([1]; TNBC, 8 assessable patients): 75%
PD, number of patients ([1]; all 48 assessable patients): 14
PR, number of patients ([1]; all 48 assessable patients): 7
total response [PR+SD] ([1]; all 48 assessable patients): 79%
total response [PR+SD] ([1]; all 48 assessable patients, listed as hRS7-SN-38): 71%
PD, number of patients [1, 5]: 1
PR, number of patients [1, 5]: 1
total response [PR+SD] [1, 5]: 75%
time to clearance of conjugate from serum ([1]; human, in vivo): ≤ 3 days
Abdominal pain, Grade 3, number of patients ([1]; in vivo): 0
Abdominal pain, Grade 4, number of patients ([1]; in vivo): 0
Abdominal pain, TOTAL ([1]; in vivo): 11%
Alopecia, TOTAL ([1]; in vivo): 40%
Anemia, Grade 3 ([1]; in vivo): (4%)
Anemia, Grade 3, number of patients ([1]; in vivo): 2
Anemia, Grade 4, number of patients ([1]; in vivo): 0
Anemia, TOTAL ([1]; in vivo): 13%
Deep vein thrombosis, Grade 3 ([1]; in vivo): (2%)
Deep vein thrombosis, Grade 3, number of patients ([1]; in vivo): 1
Deep vein thrombosis, Grade 4, number of patients ([1]; in vivo): 0
Deep vein thrombosis, TOTAL ([1]; in vivo): 2%
Diarrhea, Grade 3 ([1]; in vivo): (9%)
Diarrhea, Grade 3, number of patients ([1]; in vivo): 4
Diarrhea, Grade 4, number of patients ([1]; in vivo): 0
Diarrhea, TOTAL ([1]; in vivo): 47%
Dysgeusia, Grade 3, number of patients ([1]; in vivo): 0
Dysgeusia, Grade 4, number of patients ([1]; in vivo): 0
Dysgeusia, TOTAL ([1]; in vivo): 15%
Fatigue, Grade 3 ([1]; in vivo): (9%)
Fatigue, Grade 3, number of patients ([1]; in vivo): 4
Fatigue, Grade 4, number of patients ([1]; in vivo): 0
Fatigue, TOTAL ([1]; in vivo): 55%
Hypokalemia, Grade 3 ([1]; in vivo): (2%)
Hypokalemia, Grade 3, number of patients ([1]; in vivo): 1
Hypokalemia, Grade 4, number of patients ([1]; in vivo): 0
Hypokalemia, TOTAL ([1]; in vivo): 11%
Nausea, Grade 3, number of patients ([1]; in vivo): 0
Nausea, Grade 4, number of patients ([1]; in vivo): 0
Nausea, TOTAL ([1]; in vivo): 53%
Neutropenia, Grade 3 ([1]; in vivo): (24%)
Neutropenia, Grade 3, number of patients ([1]; in vivo): 11
Neutropenia, Grade 4, number of patients (%) ([1]; in vivo): 2 (4%)
Neutropenia, TOTAL ([1]; in vivo): 43%
Pyrexia, Grade 3, number of patients ([1]; in vivo): 0
Pyrexia, Grade 4, number of patients ([1]; in vivo): 0
Pyrexia, TOTAL ([1]; in vivo): 13%
SN-38 in the serum bound to the IgG ([1]; in vivo): > 95%
Vomiting, Grade 3 ([1]; in vivo): (2%)
Vomiting, Grade 3, number of patients ([1]; in vivo): 1
Vomiting, Grade 4, number of patients ([1]; in vivo): 0
Vomiting, TOTAL ([1]; in vivo): 32%
WBC Decrease, Grade 3 ([1]; in vivo): (2%)
WBC Decrease, Grade 3, number of patients ([1]; in vivo): 1
WBC Decrease, Grade 4, number of patients ([1]; in vivo): 0
WBC Decrease, TOTAL ([1]; in vivo): 6%
anti-hRS7 or anti-SN-38 antibodies ([1]; in vivo): No anti-hRS7 or anti-SN-38 antibodies were detected
anti-hRS7 or anti-SN-38 antibody response ([1]; in vivo): no anti-hRS7 or anti-SN-38 antibody response has been detected
clearance of intact conjugate vs IgG ([1]; in vivo): cleared more quickly than the IgG
diarrhea ≥G3 ([1]; in vivo): 9%
fatigue ≥G3 ([1]; in vivo): 9%
incidence of Grade 3 or higher, all other adverse events ([1]; in vivo): less than 10%
median time to progression (TTP), PDC ([1]; in vivo): 12.7 wks
nausea ≥G3 ([1]; in vivo): 0%
neutropenia Grade 4 ([1]; in vivo): 4%
neutropenia ≥Grade 3 ([1]; in vivo): 28%
vomiting ≥G3 ([1]; in vivo): 2%
reduction in target lesions, first CT ([1]; person, CRC, 8 mg/kg): 37%
primary target lesion size at first CT ([1]; person, NSCLC, 5.6 cm at start, after 6th dose): 3.2 cm
reduction in target lesions ([1]; person, SCLC, 12 mg/kg reduced to 6.8 mg/kg, after two months): 38%
TTP ([1]; remaining 48 patients): ≥ 12.6 wks
anti-tumor effect vs untreated ([2]; all three dosing schemes of fractionated 2 mg): significant anti-tumor effect
TTP ([2]; eight doses of 0.25 mg): 31.7 ± 14.5 days
TTP ([2]; two doses of 1 mg (days 1 and 15)): 22.4 ± 10.1 days
amount in tumor vs hRS7 IgG [3]: similar
tolerability (gastric cancer; 10 mg/kg): some mild nausea and diarrhea
disease reduction from baseline by RECIST (gastric cancer; after another 5 courses): about 35%
therapeutic efficacy [4]: better therapeutic efficacy than control treatments
IC50 (BxPC-3): 4.03 nM
